The labels stand for the following.
T1: human CD22 on CD22-positive Burkitt's lymphoma cells (Daudi, Raji, Ramos) (human, UniProt P20273 20-847)
T1 construct: whole, on cells; also called CD22+ cells; CD22 positive cells
T1 sequence (looked up): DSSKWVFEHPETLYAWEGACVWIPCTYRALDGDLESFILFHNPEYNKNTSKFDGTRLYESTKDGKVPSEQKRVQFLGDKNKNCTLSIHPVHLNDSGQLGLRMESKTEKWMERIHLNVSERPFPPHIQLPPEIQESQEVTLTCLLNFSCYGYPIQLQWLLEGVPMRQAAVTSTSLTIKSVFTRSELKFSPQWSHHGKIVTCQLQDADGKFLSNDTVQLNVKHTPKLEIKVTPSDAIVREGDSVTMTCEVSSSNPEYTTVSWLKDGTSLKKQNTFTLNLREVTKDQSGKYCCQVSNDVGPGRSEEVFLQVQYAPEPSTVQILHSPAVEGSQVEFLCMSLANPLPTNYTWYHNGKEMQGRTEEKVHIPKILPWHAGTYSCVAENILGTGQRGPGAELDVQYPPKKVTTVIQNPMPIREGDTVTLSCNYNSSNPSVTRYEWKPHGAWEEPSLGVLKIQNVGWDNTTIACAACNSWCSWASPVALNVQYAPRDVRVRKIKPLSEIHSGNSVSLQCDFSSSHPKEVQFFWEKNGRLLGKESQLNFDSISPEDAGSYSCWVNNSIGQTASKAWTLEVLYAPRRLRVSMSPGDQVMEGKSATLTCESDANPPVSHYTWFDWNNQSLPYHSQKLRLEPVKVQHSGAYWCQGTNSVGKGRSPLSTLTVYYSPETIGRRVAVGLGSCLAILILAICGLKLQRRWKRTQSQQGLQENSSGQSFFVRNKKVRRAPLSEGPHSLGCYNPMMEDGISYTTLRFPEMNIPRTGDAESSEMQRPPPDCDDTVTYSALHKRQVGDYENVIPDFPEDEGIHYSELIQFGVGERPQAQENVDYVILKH

T2: human CD22 protein (recombinant CD22 extracellular domain) (human, UniProt P20273 20-687)
T2 construct: extracellular domain; also called SIGLEC-2
T2 sequence (looked up): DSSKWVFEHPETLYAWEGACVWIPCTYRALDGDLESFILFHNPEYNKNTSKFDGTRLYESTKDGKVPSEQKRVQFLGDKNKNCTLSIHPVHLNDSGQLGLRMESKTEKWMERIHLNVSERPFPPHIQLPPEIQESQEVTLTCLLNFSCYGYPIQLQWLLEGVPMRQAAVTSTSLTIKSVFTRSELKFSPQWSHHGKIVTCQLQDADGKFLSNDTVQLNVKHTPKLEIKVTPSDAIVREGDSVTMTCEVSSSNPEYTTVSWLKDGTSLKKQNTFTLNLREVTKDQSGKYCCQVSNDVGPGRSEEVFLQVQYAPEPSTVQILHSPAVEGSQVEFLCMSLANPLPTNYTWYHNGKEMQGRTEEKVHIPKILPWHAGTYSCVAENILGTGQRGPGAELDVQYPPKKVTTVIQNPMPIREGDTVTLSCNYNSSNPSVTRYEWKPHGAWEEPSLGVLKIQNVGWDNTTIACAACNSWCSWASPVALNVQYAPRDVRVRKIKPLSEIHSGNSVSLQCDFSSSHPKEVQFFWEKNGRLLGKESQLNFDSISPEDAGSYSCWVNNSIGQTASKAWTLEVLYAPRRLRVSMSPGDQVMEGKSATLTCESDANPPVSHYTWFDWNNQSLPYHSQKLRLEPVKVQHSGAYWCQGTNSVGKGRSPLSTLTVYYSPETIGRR

B1: anti-CD22 heavy chain-only antibody with the VH of SEQ ID NO: 39 (antibody, V domains shown)
VH: QLQLQESGPGLVKPSETLSLTCTVSGDSISSGDYYWGWIRQPPGKGLEWIGHIYYSGATYYNPSLKNRVTISVDTSKNQFSLKLSSVTAADTAVYYCTREDSSNWRSRGQGTLVTVSS
notes: Heavy chain-only antibody (UniAb), human IgG
B2: anti-CD22 heavy chain-only antibody with the VH of SEQ ID NO: 40 (antibody, V domains shown)
VH: B1 VH with N104S
notes: as for B1
B3: anti-CD22 heavy chain-only antibody with the VH of SEQ ID NO: 43 (antibody, V domains shown)
VH: B1 VH with D27G, K77R, E100D
notes: as for B1
B4: anti-CD22 heavy chain-only antibody with the VH of SEQ ID NO: 45 (antibody, V domains shown)
VH: B1 VH with H52S, A58S, N67S, N104S
notes: as for B1
B5: anti-CD22 heavy chain-only antibody with the VH of SEQ ID NO: 44 (antibody, V domains shown)
VH: B1 VH with D27G, K66E, E100D
notes: as for B1
B6: anti-CD22 heavy chain-only antibody with the VH of SEQ ID NO: 42 (antibody, V domains shown)
VH: B1 VH with H52S, E100D
notes: as for B1
B7: anti-CD22 heavy chain-only antibody with the VH of SEQ ID NO: 48 (antibody, V domains shown)
VH: B1 VH with Q41H, N104S
notes: as for B1
B8: anti-CD22 heavy chain-only antibody with the VH of SEQ ID NO: 41 (antibody, V domains shown)
VH: B1 VH with K77R
notes: as for B1
B9: anti-CD22 heavy chain-only antibody with the VH of SEQ ID NO: 47 (antibody, V domains shown)
VH: B1 VH with D33G, H52S, A58S, N104S
notes: as for B1
B10: anti-CD22 heavy chain-only antibody with the VH of SEQ ID NO: 53 (antibody, V domains shown)
VH: B1 VH with H52S, S56T, A58S, N67S
notes: as for B1
B11: anti-CD22 heavy chain-only antibody with the VH of SEQ ID NO: 49 (antibody, V domains shown)
VH: B1 VH with H52N
notes: as for B1
B12: anti-CD22 heavy chain-only antibody with the VH of SEQ ID NO: 29 (antibody, V domains shown)
VH: B1 VH with K77R, E100D
notes: as for B1
B13: anti-CD22 heavy chain-only antibody with the VH of SEQ ID NO: 30 (antibody, V domains shown)
VH: B1 VH with E100D
notes: as for B1
B14: anti-CD22 heavy chain-only antibody with the VH of SEQ ID NO: 33 (antibody, V domains shown)
VH: B1 VH with A58V, E100D
notes: as for B1
B15: anti-CD22 heavy chain-only antibody with the VH of SEQ ID NO: 28 (antibody, V domains shown)
VH: B1 VH with K77R, K83N, E100D
notes: as for B1
B16: anti-CD22 heavy chain-only antibody with the VH of SEQ ID NO: 50 (antibody, V domains shown)
VH: B1 VH with H52N, E100D
notes: as for B1
B17: anti-CD22 heavy chain-only antibody with the VH of SEQ ID NO: 27 (antibody, V domains shown)
VH: B1 VH with A58V, K77R, K83N, N104S
notes: as for B1
B18: anti-CD22 heavy chain-only antibody with the VH of SEQ ID NO: 26 (antibody, V domains shown)
VH: B1 VH with A58V, N104S
notes: as for B1
B19: anti-CD22 heavy chain-only antibody with the VH of SEQ ID NO: 37 (antibody, V domains shown)
VH: B1 VH with A58V
notes: as for B1
B20: anti-CD22 heavy chain-only antibody with the VH of SEQ ID NO: 52 (antibody, V domains shown)
VH: B1 VH with H52S, A58S, N67S
notes: as for B1
B21: anti-CD22 heavy chain-only antibody with the VH of SEQ ID NO: 25 (antibody, V domains shown)
VH: B1 VH with K66E, E100D
notes: as for B1
B22: anti-CD22 heavy chain-only antibody with the VH of SEQ ID NO: 34 (antibody, V domains shown)
VH: B1 VH with A58V, K77R
notes: as for B1
B23: anti-CD22 heavy chain-only antibody with the VH of SEQ ID NO: 24 (antibody, V domains shown)
VH: B1 VH with A58V, N67S, K77R
notes: as for B1
B24: anti-CD22 heavy chain-only antibody with the VH of SEQ ID NO: 36 (antibody, V domains shown)
VH: B1 VH with K77R, N104S
notes: as for B1
B25: anti-CD22 heavy chain-only antibody with the VH of SEQ ID NO: 38 (antibody, V domains shown)
VH: B1 VH with K77R, K83N
notes: as for B1
B26: anti-CD22 heavy chain-only antibody with the VH of SEQ ID NO: 35 (antibody, V domains shown)
VH: B1 VH with K66E, N104S
notes: as for B1
B27: anti-CD22 heavy chain-only antibody with the VH of SEQ ID NO: 51 (antibody, V domains shown)
VH: B1 VH with D27G, G32S, D33S, H52S, A58S, N67S, E100D
notes: as for B1
B28: anti-CD22 heavy chain-only antibody with the VH of SEQ ID NO: 32 (antibody, V domains shown)
VH: B1 VH with K77R, K83N, N104S
notes: as for B1
B29: anti-CD22 heavy chain-only antibody with the VH of SEQ ID NO: 31 (antibody, V domains shown)
VH: B1 VH with D33G, E100D
notes: as for B1
B30: anti-CD22 heavy chain-only antibody with the VH of SEQ ID NO: 46 (antibody, V domains shown)
VH: B1 VH with H52N, N104S
notes: as for B1

Numbering of substitutions follows the chain as printed.

The target of the first assay is T1, human CD22 on CD22-positive Burkitt's …. Put plainly: cell binding, Daudi cells. As for the experimental part: Binding to CD22 positive cells was assessed by flow cytometry (Guava easyCyte 8HT, EMD Millipore) using the Daudi cell line (ATCC). Briefly, 100,000 target cells were stained with a dilution series of purified UniAbs™ for 30 minutes at 4° C. Following incubation, the cells were washed twice with flow cytometry buffer (1×PBS, 1% BSA, 0.1% NaN_3) and stained with goat F(ab')2 anti-human IgG conjugated to R-phycoerythrin (PE) (Southern Biotech, cat. #2042-09) to detect cell-bound antibodies. After a 20-minute incubation at 4° C., the cells were washed twice with flow cytometry buffer and then mean fluorescence intensity (MFI) was measured by flow cytometry. EC50 values were calculated using GraphPad Prism 7. Binding to *cynomolgus* CD22 positive cells was determined using the same protocol with the following modifications: the target cells were from CHO cells stably transfected to express the extracellular domain of *cynomolgus* CD22 and each antibody was tested at a single concentration (~1.7 µg/mL) so EC50 values were not calculated.
Turning to B1, the binding result was “binds”.

With B2, the binding result is reported as “binds”.

Turning to B3, the binding result is on record as “binds”.

For the molecule B4, the binding result is listed as “binds”.

B5: the binding result is listed as “binds”.

On to B6, for which the binding result is given as “binds”.

Consider B7, for which the binding result is “binds”.

Consider B8, for which the binding result is given as “binds”.

With B9, the binding result was “binds”.

With B10, the binding result is reported as “binds”.

Take B11: the binding result is “binds”.

For B12, the binding result is listed as “binds”.

Regarding B13, the binding result is listed as “binds”.

Regarding B14, the binding result was “binds”.

As to B15, the binding result was “binds”.

Take B16: the binding result is “binds”.

As to B17, the binding result is on record as “binds”.

Regarding B18, the binding result was “binds”.

Regarding B19, the binding result was “binds”.

Consider B20, for which the binding result is listed as “binds”.

In the case of B21, the binding result was “binds”.

As for B22, the binding result is recorded as “binds”.

Regarding B23, the binding result is reported as “binds”.

In the case of B24, the binding result is on record as “binds”.

On to B25, for which the binding result was “binds”.

For the molecule B26, the binding result is listed as “binds”.

B27: the binding result is “binds”.

Turning to B28, the binding result was “binds”.

For B29, the binding result is listed as “binds”.

Consider B30, for which the binding result is recorded as “binds”.

The target in another assay is T2, human CD22 protein (recombinant CD22 …). Put plainly: ELISA on recombinant CD22 extracellular domain and/or cell binding.
In the case of B1, the binding result is listed as “binds”.

For B2, the binding result is listed as “binds”.

In the case of B3, the binding result was “binds”.

For B4, the binding result is “binds”.

In the case of B5, the binding result is “binds”.

B6: the binding result is “binds”.

With B7, the binding result is listed as “binds”.

As to B8, the binding result is “binds”.

Take B9: the binding result is given as “binds”.

Consider B10, for which the binding result is given as “binds”.

With B11, the binding result is “binds”.

For B12, the binding result is given as “binds”.

Take B13: the binding result is “binds”.

B14: the binding result was “binds”.

As for B15, the binding result is “binds”.

For B16, the binding result is “binds”.

In the case of B17, the binding result is listed as “binds”.

Turning to B18, the binding result is “binds”.

Regarding B19, the binding result is listed as “binds”.

Take B20: the binding result is on record as “binds”.

Take B21: the binding result is listed as “binds”.

For the molecule B22, the binding result is “binds”.

Consider B23, for which the binding result was “binds”.

In the case of B24, the binding result is recorded as “binds”.

Consider B25, for which the binding result was “binds”.

Regarding B26, the binding result was “binds”.

B27: the binding result was “binds”.

On to B28, for which the binding result is “binds”.

In the case of B29, the binding result is “binds”.

With B30, the binding result is listed as “binds”.

Source of the values: patent publication US11873336 (TENEOBIO, dated 2024).
